The target in this experiment is HDAC6-EGFP WT (full-length human histone deacetylase 6 fused to EGFP) (human) (UniProt Q9UBN7). The experiment can be described thus: MST.
Chain of HDAC6-EGFP WT (full-length human histone deacetylase 6 fused to EGFP) (human) (Q9UBN7 whole entry, the tested form may be a part): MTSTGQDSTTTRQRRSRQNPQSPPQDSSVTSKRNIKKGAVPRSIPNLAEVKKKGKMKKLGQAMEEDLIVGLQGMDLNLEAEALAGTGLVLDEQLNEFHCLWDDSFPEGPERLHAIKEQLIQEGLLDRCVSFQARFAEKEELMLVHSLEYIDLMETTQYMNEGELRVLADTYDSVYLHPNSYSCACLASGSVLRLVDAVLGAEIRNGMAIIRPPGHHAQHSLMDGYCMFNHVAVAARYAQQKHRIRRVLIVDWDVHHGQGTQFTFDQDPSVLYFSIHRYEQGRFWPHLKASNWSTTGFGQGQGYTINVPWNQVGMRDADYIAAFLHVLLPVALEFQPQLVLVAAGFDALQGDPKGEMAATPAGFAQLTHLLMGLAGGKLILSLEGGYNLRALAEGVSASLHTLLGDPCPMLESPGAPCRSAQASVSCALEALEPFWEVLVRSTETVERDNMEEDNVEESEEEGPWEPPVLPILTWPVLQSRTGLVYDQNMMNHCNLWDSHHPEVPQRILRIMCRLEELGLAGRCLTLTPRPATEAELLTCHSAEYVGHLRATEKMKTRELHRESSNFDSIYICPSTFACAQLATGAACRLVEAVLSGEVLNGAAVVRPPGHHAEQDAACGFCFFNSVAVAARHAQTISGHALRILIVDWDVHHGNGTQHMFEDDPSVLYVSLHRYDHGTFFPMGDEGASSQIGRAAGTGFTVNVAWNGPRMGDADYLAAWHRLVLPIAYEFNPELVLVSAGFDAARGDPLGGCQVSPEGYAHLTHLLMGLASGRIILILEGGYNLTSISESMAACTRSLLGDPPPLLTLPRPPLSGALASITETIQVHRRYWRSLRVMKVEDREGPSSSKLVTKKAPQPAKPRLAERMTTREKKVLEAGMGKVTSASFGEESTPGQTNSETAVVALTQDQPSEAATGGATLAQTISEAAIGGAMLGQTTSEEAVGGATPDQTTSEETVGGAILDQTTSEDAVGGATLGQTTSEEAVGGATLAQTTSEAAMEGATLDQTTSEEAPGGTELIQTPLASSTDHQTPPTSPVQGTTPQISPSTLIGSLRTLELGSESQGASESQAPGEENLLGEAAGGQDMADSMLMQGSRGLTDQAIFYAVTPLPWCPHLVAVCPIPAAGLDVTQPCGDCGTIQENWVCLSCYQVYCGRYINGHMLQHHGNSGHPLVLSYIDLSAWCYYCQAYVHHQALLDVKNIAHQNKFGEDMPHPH

Chain of NEDD8, human, recombinant, His-tag (Q15843 1-76): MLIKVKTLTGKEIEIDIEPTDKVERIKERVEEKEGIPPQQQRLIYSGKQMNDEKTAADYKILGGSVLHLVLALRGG

With “K63-linked tetra-Ub (from UniProt P0CG48)”, the fold higher affinity than mono-Ub stood at 4 fold.
Consider “NEDD8, human, recombinant, His-tag (from UniProt Q15843 1-76) (natural protein)”, for which the fold lower affinity than mono-Ub was found to be 50 fold.
